Numbering of substitutions follows the chain as printed. Names and notes keep the numbering of the source.
Assay: Intramolecular (inter-strand) crosslinking yield of nanobody/monobodies by mass spectrometry
Settings: UAA-encoded monobodies, MS characterization (Table 5)
From the text: To probe whether CATK-1 is suitable for inter-strand cross-linking in proteins containing the disulfide bond, we selected a small protein called nanobody NB1, a prototypical single-chain VHH antibody that binds specifically to GFP protein. Based on NB1 structure, there is one disulfide bond formed between Cys-24 and Cys-98, close to a proposed orthogonal crosslinking site at Val-4 and Tyr-106 (FIG. 5a, left). To test orthogonal crosslinking, we placed CATK-1 at Val-4 position to target Tyr-106 located 5.6 Å away on the opposing strand. The BocK- and CATK-1-encoded NB1 were successfully expressed at yields of 14.3 mg L^−1 and 3.5 mg L^−1, respectively (FIG. 5b, left). […] Separately, we also examined the utility of CATK-1 in effecting intramolecular crosslinking in an antibody mimic called monobody. Due to their lack of cysteine residues, small size (˜10 kDa), and evolvable binding affinity and specificity, monobodies represent an ideal protein scaffold for targeting protein-protein interactions in the cytosols of mammalian cells. However, monobodies are cell impermeable, severely limiting their potential. One strategy to potentially overcome this limitation is to combine protein surface supercharging with orthogonal crosslinking to increase stability in the endosomes and thus improve cytosolic delivery. To this end, we designed an overall +10 charged monobody NSa1, termed NSa1(+10), using the Supercharge protocol on ROSIE Rosetta Online Server and added an amber codon at Ala-13 position. Based on the NSa1 structure, A13CATK-1 is well-positioned to react with the proximal Tyr-92 on the opposing strand at C-terminus (FIG. 5a, right). Accordingly, the wild-type and NSa1(+10) mutant proteins encoding CATK-1 or BocK were expressed and purified in good yields (4.1-6.9 mg L^1; FIG. 5b, right). […] The crosslink-containing fragment was identified by LC/MS after trypsin digestion (FIG. 21).
To assess if BeLaK is suitable for orthogonal crosslinking of domain antibodies, we selected NSa1, a monobody-based SHP2 inhibitor, and placed BeLaK at position-13 of the N-terminal β-strand. A panel of supercharged NSa1 mutants carrying overall charges of +6, +8, +11, and +18, respectively, were designed using Supercharge protocol on ROSIE Rosetta Online Server with native NSa1 (˜2 charge) as a template. […] Thus, the supercharged monobodies encoding either BeLaK or BocK were expressed in good yields (2.2˜7.2 mg L^−1; FIG. 42). […] Furthermore, as the positive charge increases, the mobility decreases, likely due to reduced overall negative charge after association with the SDS molecules. MS analysis further confirmed the identities of the supercharged NSa1 mutants (FIG. 34c). Since the unreacted BeLaK-encoded monobodies share the same mass as the crosslinked ones, we treated the purified monobodies with excess β-mercapto-ethanol for 7 days, which accelerates the hydrolysis of the unreacted β-lactam and in turn adds +18 Da to protein mass, and monitored the intact mass change. Using this method, we determined orthogonal crosslinking yields to range from 5% for native NSa1 to more than 50% for +8/+11/+18 mutants (FIG. 42). We attribute the higher yields to the increased conformational dynamics, which promotes proximity-driven crosslinking reactions. The crosslinking sites in +11 and +18 mutants were mapped to Lys-21 and Lys-19, respectively, residues on the nearby β-strand, based on the identified fragment masses after trypsin digestion (FIG. 34d, FIG. 50).
Crosslinking yield determination of BeLaK-encoded NSa1 variants. To quantify the extent of crosslinking, β-mercaptoethanol (20 mM) was added at a final concentration of 2.58 mM (100 equiv, 3 μL) to a solution of purified NSa1 variants (25 μM, 30 μL) in elution buffer (50 mM Na2HPO4, pH=7.4, 300 mM NaCl, 250 mM imidazole). The mixture was incubated at 37° C. overnight. Afterwards, the mixture was removed from the incubator and allowed to incubate at 25° C. for 1 week.

B1: NSa1(+10)-A13BeLaK-C1: supercharged NSa1 monobody encoding BeLaK, N-terminal Cys; SEQ. ID. NO: 15 and 23 (protein)
chain 1: MGSSHHHHHHSSGTENLYFQGCVSSKPTKLRVVRXTPTSLKIKWDAPAKTVDYYVITYGETGRGGYAWQRFEVPGSKRTATIKGLKPGVDYTITVYAGYKGYPTYYSSPISINYRT
chain 2: B1 chain 1
modifications: BeLaK at position 13; N-terminal Cys; MOD_RES 35 X is N6-(2-Oxoazetidine-1-carbonyl)-L-lysine
notes: supercharged NSa1 monobody encoding BeLaK, N-terminal Cys; ID; NO: 15 and 23
X-linking yield: 97%

B2: NSa1(+5)-A13BeLaK-Y92K-C1: supercharged NSa1 monobody encoding BeLaK; SEQ. ID. NO: 9 (protein)
chain: B1 chain 1 with K43S, K49V, T61K, R63S, R70E, K83S, Y114K
modifications: BeLaK at position 13; N-terminal Cys; MOD_RES 35 X is N6-(2-Oxoazetidine-1-carbonyl)-L-lysine
notes: supercharged NSa1 monobody encoding BeLaK; ID; NO: 9
X-linking yield: 25%

B3: NSa1(+10)-A13BeLaK-Y92K-C1: supercharged NSa1 monobody encoding BeLaK; SEQ. ID. NO: 16 (protein)
chain: B1 chain 1 with Y114K
modifications: BeLaK at position 13; N-terminal Cys; MOD_RES 35 X is N6-(2-Oxoazetidine-1-carbonyl)-L-lysine
notes: supercharged NSa1 monobody encoding BeLaK; ID; NO: 16
X-linking yield: 100%

B4: NSa1(+17)-A13BeLaK-Y92K-C1: supercharged NSa1 monobody encoding BeLaK; SEQ. ID. NO: 20 (protein)
chain: B1 chain 1 with S24K, K43S, D45K, A48K, E60K, R63S, E72R, T81K, Y114K
modifications: BeLaK at position 13; N-terminal Cys; MOD_RES 35 X is N6-(2-Oxoazetidine-1-carbonyl)-L-lysine
notes: supercharged NSa1 monobody encoding BeLaK; ID; NO: 20
X-linking yield: 87%

B5: NSa1(+7)-A13BeLaK-Y92K-C1: supercharged NSa1 monobody encoding BeLaK; SEQ. ID. NO: 12 (protein)
chain: B1 chain 1 with K49V, T61K, R70E, K83S, Y114K
modifications: BeLaK at position 13; N-terminal Cys; MOD_RES 35 X is N6-(2-Oxoazetidine-1-carbonyl)-L-lysine
notes: supercharged NSa1 monobody encoding BeLaK; ID; NO: 12
X-linking yield: 60%

B6: 12VC1(+8)-A13BeLaK-Y92K: monobody 12VC1(+8) encoding BeLaK; SEQ. ID. NO: 2 (protein)
chain: MGSSHHHHHHSSGTENLYFQGVSSVPTKLKVVAXTPTSLLISWDAPAVTVFFYVITYGETGHGVGAFKAFKVPGSKSTATISGLKPGVDYTITVYARGYSKKGPYKPSPISINKRT
modifications: BeLaK non-natural residue at position 13; VARIANT 34 X is Ne-(tert-butoxycarbonyl) lysine or N6-(2-Oxoazetidine-1-carbonyl)-L-lysine
notes: monobody 12VC1(+8) encoding BeLaK; ID; NO: 2
X-linking yield: 86%

B7: 12VC1(+10)-A13BeLaK-Y92K: monobody 12VC1(+10) encoding BeLaK; SEQ. ID. NO: 3 (protein)
chain: B6 chain with S24K, K30E, S42K, F51K, T60K, K68Q, S77R, S82K, K102Q
modifications: BeLaK non-natural residue at position 13; VARIANT 34 X is Ne-(tert-butoxycarbonyl) lysine or N6-(2-Oxoazetidine-1-carbonyl)-L-lysine
notes: monobody 12VC1(+10) encoding BeLaK; ID; NO: 3
X-linking yield: 83%

B8: NSa1(+10)-A13BeLaK-C95: supercharged NSa1 monobody encoding BeLaK, C-terminal Cys; SEQ. ID. NO: 22 (protein)
chain: MGSSHHHHHHSSGTENLYFQGVSSKPTKLRVVRXTPTSLKIKWDAPAKTVDYYVITYGETGRGGYAWQRFEVPGSKRTATIKGLKPGVDYTITVYAGYKGYPTYYSSPISINYRTC
modifications: BeLaK at position 13; C-terminal Cys; MOD_RES 34 X is N6-(2-Oxoazetidine-1-carbonyl)-L-lysine
notes: supercharged NSa1 monobody encoding BeLaK, C-terminal Cys; ID; NO: 22
X-linking yield: 22%

B9: NSa1(+17)-A13BeLaK: supercharged NSa1 monobody encoding BeLaK; SEQ. ID. NO: 18 (protein)
chain: MGSSHHHHHHSSGTENLYFQGVKSKPTKLRVVRXTPTSLKISWKAPKKTVDYYVITYGKTGSGGYAWQRFRVPGSKRTAKIKGLKPGVDYTITVYAGYKGYPTYYSSPISINYRT
modifications: BeLaK non-natural residue at position 13; MOD_RES 34 X is N6-(2-Oxoazetidine-1-carbonyl)-L-lysine
notes: supercharged NSa1 monobody encoding BeLaK; ID; NO: 18
X-linking yield: 87%

B10: NSa1(+17)-A13BeLaK-Y92K: supercharged NSa1 monobody encoding BeLaK; SEQ. ID. NO: 19 (protein)
chain: B9 chain with Y113K
modifications: BeLaK non-natural residue at position 13; MOD_RES 34 X is N6-(2-Oxoazetidine-1-carbonyl)-L-lysine
notes: supercharged NSa1 monobody encoding BeLaK; ID; NO: 19
X-linking yield: 89%

B11: NSa1(+7)-A13BeLaK: supercharged NSa1 monobody encoding BeLaK; SEQ. ID. NO: 11 (protein)
chain: MGSSHHHHHHSSGTENLYFQGVSSKPTKLRVVRXTPTSLKIKWDAPAVTVDYYVITYGEKGRGGYAWQEFEVPGSKRTATISGLKPGVDYTITVYAGYKGYPTYYSSPISINYRT
modifications: BeLaK non-natural residue at position 13; MOD_RES 34 X is N6-(2-Oxoazetidine-1-carbonyl)-L-lysine
notes: supercharged NSa1 monobody encoding BeLaK; ID; NO: 11
X-linking yield: 61%

B12: NSa1(+10)-A13BeLaK: supercharged NSa1 monobody encoding BeLaK; SEQ. ID. NO: 14 (protein)
chain: B11 chain with V48K, K60T, E69R, S82K
modifications: BeLaK non-natural residue at position 13; MOD_RES 34 X is N6-(2-Oxoazetidine-1-carbonyl)-L-lysine
notes: supercharged NSa1 monobody encoding BeLaK; ID; NO: 14
X-linking yield: 86%

B13: NSa1(+5)-A13BeLaK-Y92K: supercharged NSa1 monobody encoding BeLaK; SEQ. ID. NO: 7 (protein)
chain: B11 chain with K42S, R62S, Y113K
modifications: BeLaK non-natural residue at position 13; MOD_RES 34 X is N6-(2-Oxoazetidine-1-carbonyl)-L-lysine
notes: supercharged NSa1 monobody encoding BeLaK; ID; NO: 7
X-linking yield: 53%

B14: NSa1(+5)-A13BeLaK: supercharged NSa1 monobody encoding BeLaK; SEQ. ID. NO: 6 (protein)
chain: B11 chain with K42S, R62S
modifications: BeLaK non-natural residue at position 13; MOD_RES 34 X is N6-(2-Oxoazetidine-1-carbonyl)-L-lysine
notes: supercharged NSa1 monobody encoding BeLaK; ID; NO: 6
X-linking yield: 43%
